Paper PMC6609622, “Poly(ADP-ribose) polymerase-1 antagonizes DNA resection at double-strand breaks”

Biological target: PARP-1 (human, UniProt P09874 1-1014)
Test: EMSA; 5 and 30 uM NAD+; remains bound; EMSA: 20 mM Na-HEPES pH 7.5, 0.1 mM DTT, 0.05% Triton X-100, 100 ug/mL BSA, 5 mM MgCl2, 2 mM ATP, 100 nM DNA, 37 C 10 min, then 0.2% glutaraldehyde 15 min; DNA
Settings: protein: recombinant; label: 32P; blunt

PARP-1, sequence (P09874 whole entry): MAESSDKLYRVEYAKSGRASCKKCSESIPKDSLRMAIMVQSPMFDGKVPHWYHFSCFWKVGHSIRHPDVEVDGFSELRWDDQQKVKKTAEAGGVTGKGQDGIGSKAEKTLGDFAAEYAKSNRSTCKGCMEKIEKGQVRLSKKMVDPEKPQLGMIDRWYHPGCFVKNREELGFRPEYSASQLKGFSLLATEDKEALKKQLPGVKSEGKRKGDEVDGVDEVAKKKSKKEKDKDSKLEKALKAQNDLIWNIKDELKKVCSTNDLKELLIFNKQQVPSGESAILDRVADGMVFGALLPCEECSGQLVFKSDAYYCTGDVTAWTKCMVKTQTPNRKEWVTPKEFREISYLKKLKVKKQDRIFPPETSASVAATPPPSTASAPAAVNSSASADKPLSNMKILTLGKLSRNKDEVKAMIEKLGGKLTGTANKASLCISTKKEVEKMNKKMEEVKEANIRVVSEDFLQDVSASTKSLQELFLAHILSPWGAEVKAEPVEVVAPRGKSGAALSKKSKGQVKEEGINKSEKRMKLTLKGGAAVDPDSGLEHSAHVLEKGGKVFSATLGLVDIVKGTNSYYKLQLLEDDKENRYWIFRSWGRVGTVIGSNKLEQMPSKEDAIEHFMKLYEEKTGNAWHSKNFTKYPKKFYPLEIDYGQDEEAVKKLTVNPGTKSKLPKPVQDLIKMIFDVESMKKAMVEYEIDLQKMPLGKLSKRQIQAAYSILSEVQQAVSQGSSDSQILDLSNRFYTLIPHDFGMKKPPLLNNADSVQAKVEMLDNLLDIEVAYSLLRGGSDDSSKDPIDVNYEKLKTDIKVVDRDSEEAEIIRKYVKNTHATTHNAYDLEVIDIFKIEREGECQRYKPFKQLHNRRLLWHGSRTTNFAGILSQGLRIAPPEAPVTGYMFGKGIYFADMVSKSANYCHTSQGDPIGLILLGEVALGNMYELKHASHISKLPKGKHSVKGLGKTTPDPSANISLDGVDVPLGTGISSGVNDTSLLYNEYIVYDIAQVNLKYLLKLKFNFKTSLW

B1: JYM696/JYM698 (dsDNA)
DNA 1: GGGCGAATTGGGCCCGACGTCGCATGCTCCTCTAGACTCGAGGAATTCGGTACCCCGGGTTCGAAATCGATAAGCTTACAGTCTCCATTTAAAGGACAAG
DNA 2: CTTGTCCTTTAAATGGAGACTGTAAGCTTATCGATTTCGAACCCGGGGTACCGAATTCCTCGAGTCTAGAGGAGCATGCGACGTCGGGCCCAATTCGCCC
binding result: binds
